From PMC8200818, “SPECT/CT Imaging, Biodistribution and Radiation Dosimetry of a ^177Lu-DOTA-Integrin αvβ6 Cystine Knot Peptide in a Pancreatic Cancer Xenograft Model” (Frontiers in Oncology, 2021) come the findings set out here.

“Also recorded” adds a separate entry of the source.

One data set concerns Capan-2 xenografts. The data set can be described thus: in vivo. The conditions noted are these: for Kidney uptake / Blood activity: ~1 MBq i.v. The source says:
For in vivo experiments, at least 8-week-old female athymic NMRI-Foxn1^nu/Foxn1^nu mice (Janvier Labs, Saint-Berthevin, France) were used. Animal care followed institutional guidelines and all experiments were approved by local animal research authorities. For the generation of tumor xenografts, 5 x 10^6 cells of Capan-2 cells were inoculated subcutaneously into the left and right shoulder (1:1 phosphate-buffered saline [PBS]/Matrigel Basement Membrane Matrix High Concentration, Corning, Corning, USA). Tumors were allowed to grow for two to four weeks (tumor volume > 100 mm^3) after cell inoculation.
Radiolabeling of the DOTA-integrin αvβ6 knottin was carried out manually using [^177Lu]LuCl3 and a reagent kit from ITG Isotope Technologies Garching GmbH (Garching, Germany). A total of 40 µL (stock solution of peptide at 1 µg/µL in 10% DMSO in water) was added to 500 µL of ascorbate buffer solution pH 5.0, prepared from the kit (composition not disclosed by vendor) and the resulting mixture was then added to 35 µL of [^177Lu]LuCl3 (2 GBq in aqueous 0.04 M HCl) and the reaction mixture was heated at 80 °C for 35 minutes followed by cooling for 10 minutes at room temperature. The product was then diluted with 0.5 mL of saline and the pH was adjusted to 7 using a 1 M aqueous solution of NaHCO3 prior to injection in mice. A reverse-phase HPLC system (Knauer GmbH, Germany) with a column (Eurospher II, C18, 250 × 4 mm) was used to determine the radiochemical purity of the radiotracer. The HPLC system was equipped with an Azura P.6.1L pump coupled with ultraviolet (Azura UVD 2.1L) and radiometric (γ-Raytest-Isotopenmessgeraete GmbH, Germany) detectors. The gradient elution system used mobile phase A (100% acetonitrile) and mobile phase B (deionized H2O containing 0.1% trifluoroacetic acid) and a flow rate of 1.0 mL/min. Starting with 0% A and 100% B, the gradient was increased to 100% A over 25 min and finally returned to initial gradient conditions within 5 min.
Tumor-bearing mice (n=4-5 per time point) were injected with approximately 1 MBq (22 pmol) of ^177Lu-DOTA-integrin αvβ6 knottin to the tail vein via a catheter. Mice (n=4-5 per time point) were sacrificed and dissected one, two, three and eight days post injection. Tumor, blood, stomach, pancreas, small intestine, colon, liver, spleen, kidney, heart, lung, muscle and femur samples were weighed and uptake of radioactivity was measured by a gamma counter.

For data set [1], the target named is T1, integrin αvβ6 (BxPC-3 cells) (Homo sapiens, UniProt P06756+P18564).
T1 construct: endogenous in cells; host or cells: BxPC-3 (whole adherent cells)
T1 sequence (P06756 31-889 limits assumed): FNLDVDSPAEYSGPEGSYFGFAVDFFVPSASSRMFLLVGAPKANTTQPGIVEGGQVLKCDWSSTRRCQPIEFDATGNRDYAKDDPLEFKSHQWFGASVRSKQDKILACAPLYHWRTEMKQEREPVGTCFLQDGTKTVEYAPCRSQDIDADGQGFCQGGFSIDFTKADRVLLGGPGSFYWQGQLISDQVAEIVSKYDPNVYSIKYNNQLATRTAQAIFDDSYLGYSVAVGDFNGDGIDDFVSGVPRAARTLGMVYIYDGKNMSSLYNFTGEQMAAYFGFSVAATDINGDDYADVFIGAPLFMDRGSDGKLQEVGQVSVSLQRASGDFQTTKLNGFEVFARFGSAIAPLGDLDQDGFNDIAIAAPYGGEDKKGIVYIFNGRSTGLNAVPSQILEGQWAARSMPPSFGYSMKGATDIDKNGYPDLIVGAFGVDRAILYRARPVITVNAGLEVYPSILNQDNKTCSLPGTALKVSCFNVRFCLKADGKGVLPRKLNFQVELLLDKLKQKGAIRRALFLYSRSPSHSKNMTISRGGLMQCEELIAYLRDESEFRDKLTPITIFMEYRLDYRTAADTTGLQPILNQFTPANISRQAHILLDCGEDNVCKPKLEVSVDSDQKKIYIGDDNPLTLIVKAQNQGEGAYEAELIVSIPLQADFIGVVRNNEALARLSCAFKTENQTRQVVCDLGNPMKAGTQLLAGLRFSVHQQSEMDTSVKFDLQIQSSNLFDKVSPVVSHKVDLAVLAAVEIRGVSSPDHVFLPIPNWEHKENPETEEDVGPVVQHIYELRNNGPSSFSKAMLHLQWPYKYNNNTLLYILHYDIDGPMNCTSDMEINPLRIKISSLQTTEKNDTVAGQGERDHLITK
T1 sequence (P06756 891-1048 partner limits assumed): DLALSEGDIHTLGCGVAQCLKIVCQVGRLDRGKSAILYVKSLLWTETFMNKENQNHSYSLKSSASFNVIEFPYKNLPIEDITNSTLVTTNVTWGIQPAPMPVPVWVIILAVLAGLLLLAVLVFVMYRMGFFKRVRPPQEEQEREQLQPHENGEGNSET
T1 sequence (P18564 22-788): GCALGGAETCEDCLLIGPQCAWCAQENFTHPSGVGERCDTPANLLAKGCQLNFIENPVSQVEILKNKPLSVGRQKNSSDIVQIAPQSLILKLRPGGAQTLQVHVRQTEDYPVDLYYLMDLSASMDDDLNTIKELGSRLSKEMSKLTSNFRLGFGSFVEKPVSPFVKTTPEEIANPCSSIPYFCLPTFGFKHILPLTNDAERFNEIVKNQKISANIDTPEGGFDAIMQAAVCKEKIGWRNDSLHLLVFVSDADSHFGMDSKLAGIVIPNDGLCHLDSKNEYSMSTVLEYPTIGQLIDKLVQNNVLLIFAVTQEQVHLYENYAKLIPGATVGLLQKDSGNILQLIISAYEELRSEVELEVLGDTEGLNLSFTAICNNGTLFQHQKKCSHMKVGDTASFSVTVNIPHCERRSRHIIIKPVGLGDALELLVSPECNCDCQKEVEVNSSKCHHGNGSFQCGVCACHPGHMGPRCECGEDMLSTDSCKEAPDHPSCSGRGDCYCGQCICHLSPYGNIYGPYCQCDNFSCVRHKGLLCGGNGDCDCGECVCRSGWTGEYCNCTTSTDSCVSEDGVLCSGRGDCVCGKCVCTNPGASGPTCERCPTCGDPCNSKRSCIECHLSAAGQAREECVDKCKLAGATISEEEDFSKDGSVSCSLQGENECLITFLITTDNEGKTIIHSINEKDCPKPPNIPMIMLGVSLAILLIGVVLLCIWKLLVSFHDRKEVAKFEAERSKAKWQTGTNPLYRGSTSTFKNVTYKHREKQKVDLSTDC
Nature of the data set: Competition binding assay, BxPC-3. Here is the method: The reaction volume was made up to 30 µl with water. The reaction was carried out for 10 minutes at 80°C.
For competitive radioligand binding assay, approximately 50,000 cells (BxPC-3 or Capan-2) per well were seeded in a 96 well plate incubated overnight at 37°C. […] After 2 hours of incubation, cells were washed for 2-3 times with ice-cold washing buffer (50 mM Tris-HCl, pH 7.4, 125 mM NaCl, 0.05% BSA) and lysed with 1 N NaOH (80 µl/well). The lysed cells were transferred to vials and measured in a gamma counter (Wallac 1470 Wizard, Perkin Elmer, Waltham, MA, USA). Obtained cpm values were plotted with GraphPad Prism and the data fitted using nonlinear regression (one site - fit Ki, one site - fit logIC50).
All statistical analyses were performed using GraphPad Prism 5.04. IC50 values were determined by nonlinear sigmoidal curve fitting with variable slope setting. All presented data are based on independent experiments. Numerical data for this study have been deposited in an open data repository for public access: http://doi.org/10.5281/zenodo.4362503.

Setting [2] is: 192 h p.i., nude mice, Capan-2 xenografts, mean ± SD (4 ≤ n ≤ 5).

The molecule `CC[C@H](C)[C@@H]1NC(=O)[C@@H](NC(=O)CNC(=O)CN2CCN(CC(=O)O)CCN(CC(=O)O)CCN(CC(=O)O)CC2)CSSC[C@@H]2NC(=O)[C@H](C)NC(=O)CNC(=O)[C@@H]3CCCN3C(=O)[C@@H]3CSSC[C@@H](C(=O)NCC(=O)O)NC(=O)[C@H](Cc4ccc(O)cc4)NC(=O)CNC(=O)[C@H](CC(N)=O)NC(=O)CNC(=O)[C@H](CCCNC(=N)N)NC(=O)[C@H](CSSC[C@H](NC(=O)[C@H](CCCNC(=N)N)NC(=O)[C@H](Cc4ccccc4)NC(=O)[C@H](CC(C)C)NC(=O)[C@H](CC(C)C)NC(=O)[C@H]([C@@H](C)O)NC(=O)CNC(=O)[C@H](CC(C)C)NC(=O)[C@H](CC(=O)O)NC(=O)[C@H]([C@@H](C)O)NC(=O)[C@H](CCCNC(=N)N)NC(=O)CNC(=O)[C@H](CC(N)=O)NC(=O)[C@H](CC(C)C)NC1=O)C(=O)N[C@@H](CCCNC(=N)N)C(=O)N[C@@H](CCCNC(=N)N)C(=O)N[C@@H](CC(=O)O)C(=O)N[C@@H](CO)C(=O)N[C@@H](CC(=O)O)C(=O)N3)NC(=O)[C@H]([C@@H](C)CC)NC2=O` [^177Lu-DOTA-integrin αvβ6 knottin, metal not drawn] returned a Tumor uptake with Capan-2 xenografts (24 h p.i., ~1 MBq (22 pmol) i.v., nude mice, Capan-2 xenografts, mean ± SD (4 ≤ n ≤ 5)) of 3.13 ± 0.63 %IA/g. The Kidney uptake in the data set with Capan-2 xenografts (24 h p.i., nude mice, Capan-2 xenografts, mean ± SD (4 ≤ n ≤ 5)) is 19.2 ± 2.5 %IA/g; with Capan-2 xenografts (setting [2]), 2.3 ± 0.40 %IA/g. The Blood activity in the data set with Capan-2 xenografts (48 h p.i., nude mice, Capan-2 xenografts, mean ± SD (4 ≤ n ≤ 5)) is on record as 0.00 %IA/g; with Capan-2 xenografts (setting [2]), 0.00 %IA/g. Also, in the data set with Capan-2 xenografts (comparison with earlier study, cited there as [19]), the “Tumor uptake compared with ^64Cu conjugate” value is given as “tumor uptake was not found to be higher”. In addition, in the data set with Capan-2 xenografts (days 1, 2, 3 and 8 p.i., listed as 177Lu tracer), the “Kidney wash-out versus tumor (ex vivo)” value is on record as “in the tumor the activity was cleared at a much lower rate than in the kidney”. Moreover, the “Activity in organs like stomach, colon and lung” value in the data set with Capan-2 xenografts (later time points) is listed as “low or moderate activity”. Further, the “Binding affinity of the ^177Lu tracer” value in data set [1] was “low single-digit nanomolar range; also recorded: high affinity and specific binding to target-positive cells and tumors”.
